Assay results taken from US20050176069A1 (PHARMACIA AND UPJOHN, published 2005).
“And” between values parts separate entries of the source, which are not always exact repeats. Equal entries are not always repeated. Where no end group is shown, it is not given here. [ ]: non-standard residue; d: D form. Tyr(3-I) = N[C@@H](Cc1ccc(O)c(I)c1)C(=O)O; pGlu = O=C1CC[C@@H](C(=O)O)N1; Nle = CCCC[C@H](N)C(=O)O

What follows are binders tested against T1, CEGPCR3 (C. elegans, UniProt P90745 1-376) (assay: cell-based or functional assay).
T1 sequence: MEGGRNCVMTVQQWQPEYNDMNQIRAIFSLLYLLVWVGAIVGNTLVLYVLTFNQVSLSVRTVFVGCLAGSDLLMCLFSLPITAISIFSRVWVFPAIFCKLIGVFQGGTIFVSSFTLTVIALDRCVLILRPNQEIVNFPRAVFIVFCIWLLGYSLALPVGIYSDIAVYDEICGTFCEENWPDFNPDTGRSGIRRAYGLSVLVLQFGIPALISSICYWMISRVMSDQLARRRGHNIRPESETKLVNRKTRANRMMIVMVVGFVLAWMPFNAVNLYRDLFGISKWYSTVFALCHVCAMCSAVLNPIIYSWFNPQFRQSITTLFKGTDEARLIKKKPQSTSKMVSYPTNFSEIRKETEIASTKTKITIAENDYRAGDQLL

Binder | EC50, GTPγS assay [nM]
GNSFLRF-NH2 (also called GNSFLRFamide) [GNSFLRF-NH2] | 7900
GPSGPLRF-NH2 [GPSGPLRF-NH2] | 422
GGPQGPLRF-NH2 [GGPQGPLRF-NH2] | 152

Molecular target: T2, CEGPCR12h (C. elegans)
T2 chain: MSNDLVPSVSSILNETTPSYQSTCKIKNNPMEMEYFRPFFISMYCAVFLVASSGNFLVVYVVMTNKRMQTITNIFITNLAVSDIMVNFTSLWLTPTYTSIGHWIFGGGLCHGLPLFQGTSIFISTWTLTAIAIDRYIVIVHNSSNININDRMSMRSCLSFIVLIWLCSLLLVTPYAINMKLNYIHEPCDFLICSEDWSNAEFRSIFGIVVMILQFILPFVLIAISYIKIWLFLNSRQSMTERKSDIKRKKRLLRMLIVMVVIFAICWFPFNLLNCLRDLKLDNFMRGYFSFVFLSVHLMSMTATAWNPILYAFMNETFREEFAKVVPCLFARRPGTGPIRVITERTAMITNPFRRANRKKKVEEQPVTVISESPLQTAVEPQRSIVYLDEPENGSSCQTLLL
Test: cell-based or functional assay

Binder | EC50, [35S]GTPγS assay [nM]
PDVDHVFLRF-NH2 […-NH2 (SchistoFLRFa)] | 330

Molecular target: T3, CEGPCR7 (C. elegans), Q18534
T3 chain: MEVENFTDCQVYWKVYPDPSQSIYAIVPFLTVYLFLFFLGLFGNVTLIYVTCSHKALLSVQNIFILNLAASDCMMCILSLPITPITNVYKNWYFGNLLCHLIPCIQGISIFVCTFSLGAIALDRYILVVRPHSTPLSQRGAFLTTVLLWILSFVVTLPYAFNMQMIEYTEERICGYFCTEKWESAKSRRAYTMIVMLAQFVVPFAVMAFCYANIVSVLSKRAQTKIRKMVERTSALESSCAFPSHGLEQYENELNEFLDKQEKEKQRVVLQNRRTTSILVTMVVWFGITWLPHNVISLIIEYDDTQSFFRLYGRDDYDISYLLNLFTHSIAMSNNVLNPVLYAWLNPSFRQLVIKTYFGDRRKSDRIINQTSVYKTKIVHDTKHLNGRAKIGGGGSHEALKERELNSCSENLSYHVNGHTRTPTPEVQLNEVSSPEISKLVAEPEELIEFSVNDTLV
Test: cell-based or functional assay

Binder | AF9-induced [35S]GTPγS binding, cells kept at 37° C. (third of three experiments; no stimulation in the other two) [fold] | AF9-induced [35S]GTPγS binding, cooling (28° C.) protocol [fold] | EC50, GTPγS assay [nM]
GLGPRPLRF-NH2 […-NH2 (AF9)] | 1.4 | 2.6 | 207

Molecular target: T4, CEGPCR4 (C. elegans)
T4 construct: Expressed in CHO cells
T4 chain: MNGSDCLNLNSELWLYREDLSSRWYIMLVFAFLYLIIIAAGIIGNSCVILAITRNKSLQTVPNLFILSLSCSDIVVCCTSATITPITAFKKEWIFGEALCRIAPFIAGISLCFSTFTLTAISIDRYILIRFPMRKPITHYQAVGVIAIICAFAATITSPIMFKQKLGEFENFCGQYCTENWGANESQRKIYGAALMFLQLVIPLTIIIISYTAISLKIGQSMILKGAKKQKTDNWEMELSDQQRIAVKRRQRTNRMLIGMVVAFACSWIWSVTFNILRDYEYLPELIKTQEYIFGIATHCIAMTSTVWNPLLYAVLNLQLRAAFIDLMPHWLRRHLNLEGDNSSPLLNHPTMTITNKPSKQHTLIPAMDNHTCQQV
Test: competition binding assay, CEGPCR4/CHO membranes, vs [125I-Y]DVPGVLRF-NH2

Binder | IC50
NGAPQPFVRF-NH2 [NGAPQPFVRF-NH2] | 50000 to 500000 nM
SAEPFGTMRF-NH2 [SAEPFGTMRF-NH2] | 50000 to 500000 nM
KPNFLRF-NH2 [KPNFLRF-NH2] | 60000 to 900000 nM
EIVFHQISPIFFRF-NH2 [EIVFHQISPIFFRF-NH2] | 50000 to 500000 nM
GVLRF-NH2 [GVLRF-NH2] | 1 to 60 nM
[Tyr(3-I)]GVLRF-NH2 (N-terminus assumed; SMILES CC(C)C[C@H](NC(=O)[C@@H](NC(=O)CNC(=O)[C@@H](N)Cc1ccc(O)c(I)c1)C(C)C)C(=O)N[C@@H](CCCNC(=N)N)C(=O)N[C@@H](Cc1ccccc1)C(N)=O, Synthetic) [3-Iodo-Y-GVLRF-NH2] | 1 to 60 nM
DVPGVLRF-NH2 [DVPGVLRF-NH2] | 0.5 to 10 nM and 1 to 60 nM
YVPGVLRF-NH2 (Synthetic) [Y-VPGVLRF-NH2] | 1 to 60 nM
Ac-GVLRF-NH2 [Ac-GVLRF-NH2] | 1 to 60 nM
[Tyr(3-I)]PGVLRF-NH2 (N-terminus assumed; SMILES CC(C)C[C@H](NC(=O)[C@@H](NC(=O)CNC(=O)[C@@H]1CCCN1C(=O)[C@@H](N)Cc1ccc(O)c(I)c1)C(C)C)C(=O)N[C@@H](CCCNC(=N)N)C(=O)N[C@@H](Cc1ccccc1)C(N)=O, Synthetic; also called 3-Ioda-Y-PGVLRF-NH2) [3-Iodo-Y-PGVLRF-NH2] | 1 to 60 nM
SDNFMRF-NH2 [SDNFMRF-NH2] | 50000 to 500000 nM
PDNFMRF-NH2 [PDNFMRF-NH2] | 50000 to 500000 nM
PGVLRF-NH2 [PGVLRF-NH2] | 1 to 60 nM
YGVLRF-NH2 (Synthetic) [Y-GVLRF-NH2] | 1 to 60 nM
IL[Nle]RF-NH2 (N-terminus assumed; SMILES CCCC[C@H](NC(=O)[C@H](CC(C)C)NC(=O)[C@@H](N)[C@@H](C)CC)C(=O)N[C@@H](CCCNC(=N)N)C(=O)N[C@@H](Cc1ccccc1)C(N)=O, Synthetic) [ILNleRF-NH2] | 60000 to 900000 nM
GNSFLRF-NH2 (also called GNSFLRFamide) [GNSFLRF-NH2] | 60000 to 900000 nM

Binder | IC50
EIPGVLRF-NH2 [EIPGVLRF-NH2] | 0.5 to 10 nM
[Tyr(3-I)]DVPGVLRF-NH2 (also: 125I in the radiolabelled probe, N-terminally iodo-Tyr-extended flp18 analog) [3-Iodo-Y-DVPGVLRF-NH2] | 1 to 60 nM
VLRF-NH2 (also called C-terminal tetrapeptide VLRF-NH2) [VLRF-NH2] | ~400 nM
SPLGTMRF-NH2 [SPLGTMRF-NH2] | 50000 to 500000 nM
[Tyr(3-I)]VPGVLRF-NH2 (N-terminus assumed; SMILES CC(C)C[C@H](NC(=O)[C@@H](NC(=O)CNC(=O)[C@@H]1CCCN1C(=O)[C@@H](NC(=O)[C@@H](N)Cc1ccc(O)c(I)c1)C(C)C)C(C)C)C(=O)N[C@@H](CCCNC(=N)N)C(=O)N[C@@H](Cc1ccccc1)C(N)=O, Synthetic) [3-Iodo-Y-VPGVLRF-NH2] | 1 to 60 nM
VPGVLRF-NH2 [VPGVLRF-NH2] | 1 to 60 nM
YPGVLRF-NH2 (Synthetic) [Y-PGVLRF-NH2] | 1 to 60 nM
GGPQGPLRF-NH2 [GGPQGPLRF-NH2] | 50000 to 500000 nM
YDVPGVLRF-NH2 [Y-DVPGVLRF-NH2] | 1 to 60 nM
DFDGAMPGVLRF-NH2 [DFDGAMPGVLRF-NH2] | 0.5 to 10 nM
Ac-VPGVLRF-NH2 [Ac-VPGVLRF-NH2] | 1 to 60 nM
ASPSFIRF-NH2 [ASPSFIRF-NH2] | 0.5 to 10 nM
TNRNFLRF-NH2 [TNRNFLRF-NH2 (Lobster peptide II)] | 50000 to 500000 nM
SEVPGVLRF-NH2 [SEVPGVLRF-NH2] | 0.5 to 10 nM
KSVPGVLRF-NH2 [KSVPGVLRF-NH2] | 0.5 to 10 nM

Molecular target: T5, CEGPCR4 (C. elegans)
T5 chain: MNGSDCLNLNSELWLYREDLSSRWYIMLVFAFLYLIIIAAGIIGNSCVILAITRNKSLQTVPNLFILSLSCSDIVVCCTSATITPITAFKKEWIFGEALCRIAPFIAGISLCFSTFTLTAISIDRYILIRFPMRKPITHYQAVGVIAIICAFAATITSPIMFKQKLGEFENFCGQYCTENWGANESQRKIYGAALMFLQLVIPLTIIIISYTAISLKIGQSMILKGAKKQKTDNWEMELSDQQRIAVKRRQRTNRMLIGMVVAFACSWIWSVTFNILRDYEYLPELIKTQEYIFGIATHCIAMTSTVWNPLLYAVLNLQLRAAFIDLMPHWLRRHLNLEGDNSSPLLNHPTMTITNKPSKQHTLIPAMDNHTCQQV
Test: as above

Binder | IC50 [nM]
PDVDHVFLRF-NH2 […-NH2 (SchistoFLRFa)] | 60000 to 900000
GMPGVLRF-NH2 [GMPGVLRF-NH2 (AF20)] | 0.5 to 10
AVPGVLRF-NH2 [AVPGVLRF-NH2 (AF3)] | 0.5 to 10
[pGlu]DVDHVFLRF-NH2 (SMILES CC(C)C[C@H](NC(=O)[C@H](Cc1ccccc1)NC(=O)[C@@H](NC(=O)[C@H](Cc1c[nH]cn1)NC(=O)[C@H](CC(=O)O)NC(=O)[C@@H](NC(=O)[C@H](CC(=O)O)NC(=O)[C@@H]1CCC(=O)N1)C(C)C)C(C)C)C(=O)N[C@@H](CCCNC(=N)N)C(=O)N[C@@H](Cc1ccccc1)C(N)=O) [p…-NH2 (leucomyosuppressin)] | 60000 to 900000
TDVDHVFLRF-NH2 […-NH2 (dromyosuppressin)] | 50000 to 500000
GDVPGVLRF-NH2 […-NH2 (AF4)] | 0.5 to 10
